The subject of one assay is FaDu cells. Put plainly: In vitro cytotoxicity study (CELLTITER-GLO). Type of assay: cell-based, human. Conditions: 72 hours treatment, cell viability, read-out: Relative IC50. The procedure:
Human head and neck cancer cell line FaDu was respectively grown in RPMI-1640 medium (ATCC® modification) supplemented with 10% fetal bovine serum. The FaDu cell lines were maintained in an atmosphere of 5% CO2 in a humidified 37° C. incubator. The day before treatment, cells were collected and seeded into 96-well plates (4,000 cells per well). Each treatment was performed in eight triplicate data points. After the treatment of 72 hours, cell viability was assessed by CELLTITER-GLO® kit (PROMEGA®) according to the manufacturer's instruction. At the end of the incubation, luminescence was measured using a SpectraMax i3x Multi Mode Detection Platform (MOLECULAR DEVICES®). Compound cytotoxicity was evaluated in comparison to cells treated with 0.05% PBS (ADCs) or 0.05% DMSO (toxic payload). IC50 values were calculated by fitting viability data with a four-parameter logistic equation using GRAPHPAD® prism 5.0 software.
A general note: ATP-based viability assays read luminescence as a measure of living cells.

For assay [1], the system named is FaDu human head and neck cancer xenograft. Put plainly: Xenograft model of anti-NTSR1 ADCs (head and neck cancer). The assay is classed as in vivo, male NOD SCID mice. Conditions: for FaDu tumor growth: 5 mg/kg, Day 10 to Day 17. The procedure:
The aim of this study was to evaluate the in vivo anti-tumor efficacy of αNTSR1 (AKT2) 4seco-DUBA, αNTSR1 (AKT2 Hu/Hu) 4seco-DUBA, and αNTSR1 (AKT2 Hu/Hd) 4seco-DUBA in FaDu human head and neck cancer xenograft model in male NOD SCID mice.
Formulations respectively comprising test article αNTSR1 (AKT2) 4seco-DUBA, test article αNTSR1 (AKT2 Hu/Hu) 4seco-DUBA, test article αNTSR1 (AKT2 Hu/Hd) 4seco-DUBA, and Hu IgG were formulated by diluting the stock with a 25 mM sodium citrate buffer (pH 6.5). […]
The FaDu cells were maintained in vitro as a monolayer culture in RPMI-1640 medium supplemented with 10% fetal bovine serum at 37° C. in an atmosphere of 5% CO2 in air. The tumor cells were routinely sub-cultured twice weekly by trypsin-EDTA treatment. The cells growing in an exponential growth phase were harvested and counted for tumor inoculation.
Male NOD SCID mice at age of 6-7 weeks were quarantined for one week. Five mice were housed in each cage. All animals were hosted in the animal facility with a 12-h light/12-h dark cycle at 19-25° C. Animals had free access to rodent pellet foods and water ad libitum.
FaDu cells were subcutaneously (SC) implanted (4×10^6 cells in 1:1 PBS/matrigel mixture at 0.1 mL per mouse) into the right flank of male NOD SCID mice. When the average tumor volume had reached about 200 mm^3, the mice were randomly divided into 7 groups (N=6 per group). Each of Hu IgG, αNTSR1 (AKT2) 4seco-DUBA (5 mg/kg), αNTSR1 (AKT2 Hu/Hu) 4seco-DUBA (5 mg/kg), and αNTSR1 (AKT2 Hu/Hd) 4seco-DUBA (5 mg/kg) was intravenously administered twice weekly for 3 weeks.
The tumor volumes, body weights, mortality, and signs of overt toxicity were monitored and recorded three times weekly for 28 days. Tumor volumes (mm^3) were measured three times per week using calipers and calculated according to the formula: Tumor Volume=(w^2×l)/2, where w=width and l=length in diameter (mm) of the tumor. The percentages of tumor growth inhibition (TGI) were calculated using the following formula: % TGI=[1−(T/C)]×100%, where T and C represent the mean tumor volumes of the treatment group and the control group, respectively. A TGI (%) value≥58% was considered as indicating significant anti-tumor activity. Animals were weighed three times weekly until the completion of the study.

The term IC50 denotes the concentration that gives 50% inhibition.

B1: αNTSR1 (AKT2 Hu/Hu) 4seco-DUBA: antibody-drug conjugate of humanized antibody AKT2 HuHu with seco-DUBA payload (conjugate)
heavy chain: QVQLVQSGAEVKKPGASVKVSCKASGYAFTSSWIHWVRQAPGQGLEWMGQIRPNSGNTYYNEKFKVRVTMTRDTSTSTVYMELSSLRSEDTAVYYCARYHYGFDYWGQGTLVTVSS
light chain: DIVMTQTPLSLSVTPGQPASISCRSSQSIVHSNGNTYLEWYLQKPGQSPQLLIYKVSNRFSGVPDRFSGSGSGTDFTLKISRVEAEDVGVYYCFQGAHLPWTFGQGTKVEIK
As to B1, the IC50 with FaDu cells is 12.5 nM. Also, the “FaDu tumor growth” value in assay [1] was “significantly reduced FaDu tumor growth”. For the same molecule, in assay [1] (5 mpk, IV, BIW × 3), the “TGI % (1-T/C) Day 0” value came to 0.0%, the “TGI % (1-T/C) Day 5” value turned out to be 17.5%, the “TGI % (1-T/C) Day 7” value is 47.2% and the “TGI % (1-T/C) Day 10” value stood at 65.4%. Besides, in assay [1] (5 mpk, IV, BIW × 3), the “TGI % (1-T/C) Day 12” value is reported as 72.2%, the “TGI % (1-T/C) Day 14” value came to 83.8% and the “TGI % (1-T/C) Day 17” value amounted to 90.8%.

B2: αNTSR1 (AKT2 Hu/Hd) 4seco-DUBA: antibody-drug conjugate of humanized antibody AKT2 HuHd with seco-DUBA payload (conjugate)
heavy chain: B1 heavy chain
light chain: DIQMTQSPSSLSASVGDRVTITCRSSQSIVHSNGNTYLEWYQQKPGKAPKLLIYKVSNRFSGVPSRFSGSGSGTDFTLTISSLQPEDFATYYCFQGAHLPWTFGQGTKVEIK
Take B2: the IC50 with FaDu cells is 55 nM. Also, in assay [1], the “FaDu tumor growth” value is “significantly reduced FaDu tumor growth”. Further, in assay [1] (5 mpk, IV, BIW × 3), the “TGI % (1-T/C) Day 0” value came out at 0.0%, the “TGI % (1-T/C) Day 5” value is 29.8%, the “TGI % (1-T/C) Day 7” value worked out at 56.1% and the “TGI % (1-T/C) Day 10” value is 60.9%. Moreover, in assay [1] (5 mpk, IV, BIW × 3), the “TGI % (1-T/C) Day 12” value was found to be 62.7%, the “TGI % (1-T/C) Day 14” value is given as 65.2% and the “TGI % (1-T/C) Day 17” value is on record as 76.6%. Moreover, the “TGI % (1-T/C) Day 3” value in assay [1] (5 mpk, IV, BIW × 3, Day 3) was found to be 6.6%.

These data come from patent publication US12091454B2, “Humanized anti-human neurotensin receptor 1 antibodies and their uses” (DEVELOPMENT CENTER FOR BIOTECHNOLOGY, priority 2022, dated 2024).
